The series has as its system MS2 coat protein. Kind of series: apparent KD of MS2 coat protein; designed switch direction (-1 OFF switch, 1 ON switch): -1; higher = weaker reporter binding. The procedure, abridged:
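The buffer was Tris-HCl pH 7.5 with KCl, MgCl2, BSA, DTT, tRNA and Tween-20. In it, SNAP-549-labelled MS2 coat protein was titrated in doubling steps from 0.7 or 1.5 nM to 3 µM over chip-bound RNA switches transcribed by stalled E. coli RNA polymerase on Illumina chips. Apparent KD is the per-design median over clusters of curve fits to normalised fluorescence.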

The mark [1] stands for this setting: input ligand: microRNA oligo, concentration not stated.
The mark [2] stands for this setting: Eterna round: R95, input ligand: FMN 200 uM.
[3] abbreviates: Eterna round: R95, input ligand: microRNA oligo, concentration not stated.
[4] abbreviates: Eterna round: R95, input ligand: none.

Turning to “GCAGCAUAGUUUACUAACUGUUACAUGAGGAUCACCCAUGUUGAGGAUAUGGUCUGGAUUACAGGCCAGAAGGCGACAAGCUGC [Eli exng3 - 028] (Eterna round: R96, puzzle: Exclusion NG 3)”, the “apparent KD of MS2 coat protein” value runs as follows: (input ligand: FMN 200 uM) 18.1 nM; under setting [1], 13 nM; (input ligand: none) 16.9 nM.

For “GCAGCAUAUGUAGGAUAUCUGCACGUUUAGUGCAGAGAAGGACAUGAGGAUCACCCAUGUAAUUAAGAUCAAUUAUUAAGCUGC [ENG1/4-A2] (Eterna round: R96, puzzle: Exclusion NG 1)”, the “apparent KD of MS2 coat protein” value by setting is: (input ligand: FMN 200 uM) 42.5 nM; under setting [1], 17.2 nM; (input ligand: none) 26.2 nM.

Take “GCAGCAUUGUUUACUAACAGUUACAUGAGGAUCACCCAUGUUCAGGAUAUGGUCUGGAUUACAGGCCAGAAGGGAACAAGCUGC [Eli exng3 - 031] (Eterna round: R96, puzzle: Exclusion NG 3)”: the “apparent KD of MS2 coat protein” value (input ligand: FMN 200 uM) amounted to 9.09 nM, the “apparent KD of MS2 coat protein” value under setting [1] worked out at 9.39 nM and the “apparent KD of MS2 coat protein” value (input ligand: none) came to 15 nM.

Regarding “GCAGGAUAAGUCAGGAUAUACCUAUGGAUACAUAGGUAGAAGGGACAUGAGGAUCACCCAUGUGACUCACCUGC [Fiskers BMX 4 - 62] (puzzle: Brourd's mod of Exclusion 4)”, the “apparent KD of MS2 coat protein” value under setting [2] stood at 95.6 nM, the “apparent KD of MS2 coat protein” value under setting [3] turned out to be 27.8 nM and the “apparent KD of MS2 coat protein” value under setting [4] was 27 nM.

In the case of “GCAGGAUAAGUGAGGAUAUACCUCUGGAUACAGAGGUAGAAGGCACAUGAGGAUCACCCAUGUUACUCACCUGC [Fiskers BMX 4 - 76] (puzzle: Brourd's mod of Exclusion 4)”, the “apparent KD of MS2 coat protein” value under setting [3] stood at 10.9 nM.

As to “GCAUGCUAUGUCAGGAUAUACCUGUGGAUACAUAGGUAGAAGGGACAUGAGGAUCACCCAUGUCCUAAUCAUGC [Fiskers BMX 4 - 24] (Eterna round: R96, puzzle: Brourd's mod of Exclusion 4)”, the “apparent KD of MS2 coat protein” value came out at 11.6 nM (input ligand: FMN 200 uM), 10 nM under setting [1] and 13.4 nM (input ligand: none).

For “GCAUGCUAUGUCAGGAUAUACCUGUGGAUACAUAGGUAGAAGGGACAUGAGGAUCACCCAUGUCCUAAUCAUGC [Fiskers BMX 4 - 24] (puzzle: Brourd's mod of Exclusion 4)”, the “apparent KD of MS2 coat protein” value under setting [3] turned out to be 12.1 nM.

As to “GCAUGGAGACAGGAUAUCCGCGCGAACAAAAUAGGAGAAGGGUCUACAUGAGGAUCACCCAUGUGACGGUAUCC [Aedenqu] (puzzle: Exclusion 6)”, the “apparent KD of MS2 coat protein” value under setting [2] was found to be 62.2 nM, the “apparent KD of MS2 coat protein” value under setting [3] is 21.7 nM and the “apparent KD of MS2 coat protein” value under setting [4] was 27.2 nM.

For the sequence “GCAUGUUAUGUCAGGAUAUACCUAUGGAUACAUAGGUAGAAGGGACAUGAGGAUCACCCAUGUCCUAAUCAUGC [Fiskers BMX 4 - 23] (puzzle: Brourd's mod of Exclusion 4)”, under setting [3], the “apparent KD of MS2 coat protein” value is 12.5 nM.

Turning to “GCAUUGAGUGUGAGGAUAUGCUGGUCAUAAGAUCAGCAGAAGGCACAUGAGGAUCACCCAUGUGAAAACAAUGC [Mat - Exclusion 4 - JL Mod - D66] (puzzle: Brourd's mod of Exclusion 4)”, the “apparent KD of MS2 coat protein” value by setting is: under setting [2], 93.1 nM; under setting [3], 14.7 nM; under setting [4], 19.2 nM.

For “GCCAGAGCAGGAUAUUCAAUAUCACACAUGAGGAUCACCCAUGUCCGGCGAAAGCUGGAGGGAGAAGGGCUCUGGC [Fiskers Ex 5 - 14] (puzzle: Exclusion 5)”, under setting [3], the “apparent KD of MS2 coat protein” value amounted to 49.4 nM.

Turning to “GCCAGAGCAGGAUAUUCAAUGUAUCACAUGAGGAUCACCCAUGUCCAGCGAAAGCUGGAGGGAGAAGGGCUCUGGC [Fiskers Ex 5 - 17] (puzzle: Exclusion 5)”, the “apparent KD of MS2 coat protein” value is 65.6 nM under setting [2], 234 nM under setting [3] and 257 nM under setting [4].

“GCCAGGUGAUUCGGCCAUGACAUGAGGAUCACCCAUGUAACAAUCUAGCAAGCAAACAAGGCCGUCGUGUAGGUAUU [Rigeusarla] (Eterna round: R96, puzzle: Sensor v2, turn-off variant)”: the “apparent KD of MS2 coat protein” value by setting is: (input ligand: FMN 200 uM) 78 nM; under setting [1], 61.1 nM; (input ligand: none) 76.7 nM.

Take “GCCCAGUUAGGAUAUACAUGUCACGUCCUAACGGUCGAAGGACAUGAGGAUCACCCAUGUAGAAGGGACCGGCA [Onraonbe] (Eterna round: R97, puzzle: Exclusion 2)”: the “apparent KD of MS2 coat protein” value reads like this: (input ligand: FMN 200 uM) 17.7 nM; (input ligand: none) 21.2 nM.

As to “GCCCGGGCAGGAUAUACAAGCUAGUGCUGAAAAGUGCUAGUACAUGAGGAUCACCCAUGUAGAAGGGCCCGGGC [-37.6, -35.7 kcal, A 28% 2bis] (Eterna round: R97, puzzle: Exclusion 2)”, the “apparent KD of MS2 coat protein” value was found to be 30.5 nM (input ligand: FMN 200 uM) and 18.1 nM (input ligand: none).

Take “GCCGAAAAAGUGAGGAUAUACCUAUGGAUACAUAGGUAGAAGGCACAUGAGGAUCACCCAUGUAUCCUAACGGC [Eli bmx4 4.28] (Eterna round: R97, puzzle: Brourd's mod of Exclusion 4)”: the “apparent KD of MS2 coat protein” value is, setting by setting: (input ligand: FMN 200 uM) 362 nM; (input ligand: none) 29 nM.

For “GCCGAAAAUGAGAGGAUAUGCCUAUGGAUACGUAGGCAGAAGGCACAUGAGGAUCACCCAUGUUCCUCAACGGC [JL-BMX4-4.26 Eli mod] (Eterna round: R97, puzzle: Brourd's mod of Exclusion 4)”, the “apparent KD of MS2 coat protein” value by setting is: (input ligand: FMN 200 uM) 19.4 nM; (input ligand: none) 14.6 nM.

For “GCCGAAAGUGUGAGGAUAUACCUAUGGAUACAUAGGUAGAAGGCACAUGAGGAUCACCCAUGUGUCCAAACGGC [Eli bmx4 4.23] (Eterna round: R97, puzzle: Brourd's mod of Exclusion 4)”, the “apparent KD of MS2 coat protein” value runs as follows: (input ligand: FMN 200 uM) 54 nM; (input ligand: none) 21.7 nM.

“GCCGAUUAAGUCAGGAUAUACCUAUGGAUACAUAGGUAGAAGGGACAUGAGGAUCACCCAUGUUCCUCAGCGGC [Fiskers BMX 4 - 14] (puzzle: Brourd's mod of Exclusion 4)”: the “apparent KD of MS2 coat protein” value under setting [3] worked out at 14.5 nM.

As for “GCCGGAUUUGUGAGGAUAUGCCUAUGGAUACAUAGGCAGAAGGCACAUGAGGAUCACCCAUGUUCCUCACCGGC [JL-BMX4-4.24 Eli mod] (Eterna round: R97, puzzle: Brourd's mod of Exclusion 4)”, the “apparent KD of MS2 coat protein” value reads like this: (input ligand: FMN 200 uM) 232 nM; (input ligand: none) 29.8 nM.

With “GCCGGGCGUGUAGGAUAUGGCCGGCGGUGCCGGCCAGAAGGACAUGAGGAUCACCCAUGUGCCGGCCUUGGGCCGGCGCCCGGC [-51, -48 kcal and 14% A] (Eterna round: R96, puzzle: Exclusion NG 1)”, the “apparent KD of MS2 coat protein” value is 14.9 nM (input ligand: FMN 200 uM), 8.09 nM under setting [1] and 13.3 nM (input ligand: none).

Take “GCCGGUCAUGUAGGAUAUGGCCGGCGGUGCCGGCCAGAAGGACAUGAGGAUCACCCAUGUGCCGGCCUUUGGCCGGCGCCCGGC (Eterna round: R96, puzzle: Exclusion NG 1)”: the “apparent KD of MS2 coat protein” value reads like this: (input ligand: FMN 200 uM) 8.65 nM; under setting [1], 11.2 nM; (input ligand: none) 18.6 nM.

In the case of “GCCGUGCAAGGAUAUCGCGGAAAGAACAUGAGGAUCACCCAUGUGAUCACCUUCUAAAUGCGAGAAGGUGCUAAAA [Axebied] (puzzle: Exclusion 5)”, the “apparent KD of MS2 coat protein” value was 75.7 nM under setting [2], 56 nM under setting [3] and 81.4 nM under setting [4].

The values are drawn from the supplement of paper PMC9170038.
